# Numbering of substitutions follows the chain as printed.
# T1: human MAGEA8 (human, UniProt P43361 1-318)
# T1 construct: whole, on cells; FFPE cell pellets
# T1 sequence (looked up): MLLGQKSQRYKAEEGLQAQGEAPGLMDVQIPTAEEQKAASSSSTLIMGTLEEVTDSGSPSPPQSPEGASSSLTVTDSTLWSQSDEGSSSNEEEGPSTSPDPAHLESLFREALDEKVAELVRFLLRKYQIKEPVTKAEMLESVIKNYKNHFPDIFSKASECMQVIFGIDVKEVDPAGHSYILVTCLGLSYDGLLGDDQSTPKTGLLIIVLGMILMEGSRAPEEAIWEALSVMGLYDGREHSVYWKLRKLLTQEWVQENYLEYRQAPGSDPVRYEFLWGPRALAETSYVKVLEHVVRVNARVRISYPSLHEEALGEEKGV
# T2: Human MAGEB2 (Melanoma-associated antigen B2) (human, UniProt O15479 1-319)
# T2 construct: Intracellular antigen detected by IHC in FFPE material: CHO cells transfected with human MAGEB2 (mCherry vector with Myc/DDK tags, or ORF without tags)
# T2 sequence: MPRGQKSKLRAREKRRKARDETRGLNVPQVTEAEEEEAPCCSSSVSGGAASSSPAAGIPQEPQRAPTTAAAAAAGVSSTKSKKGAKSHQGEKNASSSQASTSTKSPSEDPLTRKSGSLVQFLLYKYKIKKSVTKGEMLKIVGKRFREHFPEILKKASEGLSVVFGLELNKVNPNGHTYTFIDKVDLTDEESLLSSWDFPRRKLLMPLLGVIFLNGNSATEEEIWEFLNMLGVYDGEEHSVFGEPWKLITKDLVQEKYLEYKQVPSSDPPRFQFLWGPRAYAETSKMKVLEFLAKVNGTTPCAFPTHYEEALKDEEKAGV
# B1: 1I14 (antibody, V domains shown)
# VH: QSVEESGGRLVTPGTPLTLTCTISGFSLSSYAMSWVRQAPGKGLEWIGSIGGGGSAVYASWAKGRFTISKTSTTVDLRITSPTTEDTAMYFCGRGFYSIDLWGPGTLVTVSS
# VL: DVVMTQTPASVEATVGGTVTIKCQSSQSVYDNNALAWYQQNAGQRPRLLIYGASTLASGVPSRFSASGSGTEFTLTISDLECADAATYYCQCTYYVSSYQNDFGGGTEVVVKG
# notes: also called MAGE-B2 (1i14)
# B2: 1C3 (antibody, V domains shown)
# VH: QSLEESGGGLVQPEGSLTLTCTAFGVTLTNYYICWVRQAPGKGLEWVGCIDNANGRTYYASWAKGRFTISKTSSTTGTLQMTSLTAADTATYFCARSLATPLWGPGTLVTVSS
# VL: DIVMTQTPSSVEAAVGGTVTIKCQASQNISSYLAWYQQKPGQPPKLLIYRASTLASGVPSRFKGSGSGTQFTLTISDLECADAATYYCQSYDDSRSSNFFYAFGGGTEVVVKG
# notes: also called MAGE-B2 (IC3); anti-MAGEB2 antibody 1C3
# B3: 4G17 (antibody, IgG1, V domains shown)
# VH: B2 VH with F24S, T29S, V47I, A53V
# VL: DIVMTQTPASVEAAVGGTVTIKCQASQNIDSYLAWYQQKPGQPPKLLIYRASTLASGVPSRFKGSGSGTEFTLTISDLECADAATYYCQSYDDSRSSSFFYGFGGGTEVVVK
# notes: Rabbit monoclonal IgG1; Tested as supernatant and as small batch purified antibody; also called MAGE-B2 (4G17); anti-MAGEB2 antibody 4G17
# B4: 1J15 (antibody, IgG1, V domains shown)
# VH: B2 VH with V26F, T29N, V47I, G48A, G77V, A99S
# VL: B3 VL with N28S, D30S, A34S, K63R, E70Q, R95S, S96D, S97N, S98N, K112R
# notes: Rabbit monoclonal IgG1; Tested as supernatant and as small batch purified antibody; also called MAGE-B2 (IJ15); anti-MAGEB2 antibody 1J15
# Molecular target: T3, human MAGEA2 (human, UniProt P43356 1-314)
# T3 construct: whole, on cells; FFPE cell pellets
# T3 sequence (P43356 whole entry): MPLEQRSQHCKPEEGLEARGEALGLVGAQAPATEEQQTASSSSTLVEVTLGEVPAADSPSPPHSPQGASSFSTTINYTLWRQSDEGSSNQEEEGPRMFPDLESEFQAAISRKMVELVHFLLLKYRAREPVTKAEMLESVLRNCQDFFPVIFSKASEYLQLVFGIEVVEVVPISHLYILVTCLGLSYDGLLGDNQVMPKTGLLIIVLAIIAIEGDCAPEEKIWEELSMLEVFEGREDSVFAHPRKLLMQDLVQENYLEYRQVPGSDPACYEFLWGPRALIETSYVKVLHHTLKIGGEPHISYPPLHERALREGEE
# Assay: IHC, FFPE CHO cells transfected with human MAGEA2
# Method: (§1) FFPE samples were sectioned at 4 μm and mounted on positive charged glass slides. After mounting, paraffin sections were air-dried at room temperature. FFPE TMA samples were received as freshly sectioned and mounted on glass slides. The fully automated IHC assay was performed on a Discovery Ultra Stainer (Ventana Medical Systems, Tucson, AZ) using Ventana Anti-Rabbit HQ (cat #760-4815), Ventana Anti-HQ HRP (cat #760-4820), and Ventana Antibody Diluent with Casein (cat #760-219) (Ventana Medical Systems, Tucson, AZ). The slides were baked on the Discovery Ultra Stainer at 60° C. for 8 minutes, de-paraffinized with Ventana Discovery wash (cat #950-510) for 3 cycles (8 minutes each) at 69° C., and underwent cell conditioning (target retrieval) at 95° C. for 16 minutes (for cell arrays) or 32 minutes (tissues or TMAs) in CC1 buffer (cat #950-500). Following this, slides were incubated with Background Sniper (cat #BS966M, Biocare Medical, Pacheco, CA) in a Ventana Option Prep kit (cat #771-751) for 28 minutes, incubated with CM inhibitor (a part of the Ventana DAB kit cat #760-159) for 12 minutes, and incubated for 1 h at RT with MAGE-B2 antibody diluted with Ventana diluent with Casein in a Ventana Prep kit (cat #770-001) (working concentration at 0.1 μg/ml for cell pellet, or 1-5 ug/ml for tissues) or with a matched concentration of isotype control Rabbit IgG1 antibody. Following this, slides were incubated with the Ventana Anti-Rabbit HQ (cat #760-4815) for 28 minutes at RT, Ventana Anti-HQ HRP (cat #760-4820) for 28 minutes at RT, and signals detected with Ventana DAB chromogen kit (cat #760-159) for 5 minutes at RT. Slides were counterstained with Ventana Hematoxylin II (cat #5266726001) for 8 minutes and Ventana Bluing reagent (cat #526676900) for 4 minutes. Slides were coverslipped and digitized using an Aperio AT2 scanner (Leica Biosystems Inc, Buffalo Grove, IL).
row,binding result,Binder
1,no binding (tested: 0.1 µg/ml),B1
2,no binding (tested: 0.1 µg/ml),B2
3,no binding (tested: 0.1 µg/ml),B3
4,no binding (tested: 0.1 µg/ml),B4

# Molecular target: T1, human MAGEA8
# Assay: IHC, FFPE CHO cells transfected with human MAGEA8
# Description: Negative control cells included parental Chinese hamster ovary (CHO) cells, CHO cells stably transfected with mCherry Vector Control (minus Myc/DDK tags), CHO cells stably transfected with mCherry-human DCAF4L2 (plus Myc/DDK tags). The cross-reactivity control cells included CHO cells transfected with mCherry Vector Control (plus Myc/DDK tags) with one of the human MAGE-B or MAGE-A family members (MAGEA1, MAGEA2, MAGEA3, MAGEA4, MAGEA5, MAGEA6, MAGEA8, MAGEA9, MAGEA11, MAGEA12, MAGEB1, MAGEB3, MAGEB4, MAGEB5, MAGEB6, MAGEB10, MAGEB16, MAGEB17, MAGEB18). Positive control cell lines included CHO cells transfected with mCherry Vector (plus Myc/DDK tags) with human MAGE-B2 or CHO cells transfected with mCherry Vector (open reading frame (ORF); minus Myc/DDK tags) with human MAGEB2, and thirteen human cancer cell lines with known endogenous RNA expression level of MAGEB2 (U266B1, T98G, KMM-1, U20S, CFPAC-1, SCaBER, UACC-257, CFPAC-1, VMRC-LCD, NCI-H1703, UM-UC-3, NCI-H1395, NCIH82).
# as §1, with “antibody.” for “antibody. Following this, slides were incubated with the Ventana Anti-Rabbit HQ (cat #760-4815) for 28 minutes at RT, Ventana Anti-HQ HRP (cat #760-4820) for 28 minutes at RT, and signals detected with Ventana DAB chromogen kit (cat #760-159) for 5 minutes at RT. Slides were counterstained with Ventana Hematoxylin II (cat #5266726001) for 8 minutes and Ventana Bluing reagent (cat #526676900) for 4 minutes. Slides were coverslipped and digitized using an Aperio AT2 scanner (Leica Biosystems Inc, Buffalo Grove, IL).”
row,binding result,Binder
1,no binding (tested: 0.1 µg/ml),B1
2,no binding (tested: 0.1 µg/ml),B2
3,no binding (tested: 0.1 µg/ml),B3
4,no binding (tested: 0.1 µg/ml),B4

# Molecular target: T2, Human MAGEB2 (Melanoma-associated …)
# Assay: IHC on FFPE NCI-H1703 cells (endogenous MAGEB2)
# Method: as §1
IHC % Frequency [%],IHC Intensity,Binder
0,–,B1
0,–,B2
0,0,B3
0,–,B4
